For test [1], the target named is T1, GM-CSF (immobilized on the SPR sensor chip).
T1 construct: also called immobilized GM-CSF; Granulocyte-macrophage colony stimulating factor
Briefly: SPR (Biacore 3000, GM-CSF immobilized on CM5 chip); antibody 5.4 mg/ml in 1xPBS after 14 days at 55 C. On the procedure:
(§1) The surface plasmon resonance (SPR) method was established to determine the degree of antibody binding activity to immobilized GM-CSF (Biacore 3000/CM5 sensor chip/HBS-EP running buffer). The SPR method was qualified by performing a nine-point range test, from which precision (six replicate injections) and linearity (triplicate standard curves) were determined and tested.
(§2) […] Previous studies indicated stabilizing effects of: 20 mM acetate pH 5; 20 mM histidine pH 6; 250 mM glutamic acid; 250 mM threonine, 6% (w/v) sorbitol and 6% (w/v) mannitol. […] Antibody in 1×PBS was included as a control. At T0, T7 and T14 (days), samples were analyzed by SE-HPLC and SPR.

Test [2] deals with T1, GM-CSF (immobilized on the SPR sensor …). Briefly: SPR (Biacore 3000, GM-CSF immobilized on CM5 chip); antibody 5.4 mg/ml in 20 mM acetate + 250 mM threonine after 14 days at 55 C. On the procedure: as §1, §2
For orientation: SPR reads the build-up and loss of mass on a sensor chip optically.

The target is the same in test [3]. Briefly: SPR (Biacore 3000, GM-CSF immobilized on CM5 chip); antibody 5.4 mg/ml in 20 mM histidine + 250 mM threonine after 14 days at 55 C.
The target is the same in test [4]. Briefly: SPR (Biacore 3000, GM-CSF immobilized on CM5 chip); antibody 5.4 mg/ml in 20 mM acetate + 250 mM glutamic acid after 14 days at 55 C. The method, then:
as §1, §2

Test [5] shares this target. Put plainly: SPR (Biacore 3000, GM-CSF immobilized on CM5 chip); antibody 5.4 mg/ml in 20 mM histidine + 250 mM glutamic acid after 14 days at 55 C. On the procedure: as §1, §2
Test [6] shares this target. Briefly: SPR (Biacore 3000, GM-CSF immobilized on CM5 chip); antibody 5.4 mg/ml in formulations 5-16 of Table 1 (all with mannitol or sorbitol) after 14 days at 55 C. On the procedure:
as §1, §2

B1: human monoclonal IgG1 antibody that binds to and neutralizes human GM-CSF (antibody, V domains shown)
VH: QVQLVQSGAEVKKPGASVKVSCKAFGYPFTDYLLHWVRQAPGQGLEWVGWLNPYSGDTNYAQKFQGRVTMTRDTSISTAYMELSRLRSDDTAVYYCTRTTLISVYFDYWGQGTMVTVSS
VL: DIQMTQSPSSVSASVGDRVTIACRASQNIRNILNWYQQRPGKAPQLLIYAASNLQSGVPSRFSGSGSGTDFTLTINSLQPEDFATYYCQQSYSMPRTFGGGTKLEIKR
notes: also called the antibody; anti-GM-CSF antibody
For the molecule B1, the “binding activity relative to T0” value in test [1] is 62%; in test [2] it was 26%; in test [3] it was 85%; in test [4], 19%; in test [5] it was 91%; in test [6], more than 93%.

Source of the values: US20180207278A1 (Amgen, published 2018).
